# Assay results: doi:10.1101/800508 (bioRxiv, 2019)
# B1: Arp9, actin-related protein, subunit of RSC (natural protein)
# chain: MAPFRQDSILIIYPRSQTTLVQFGLNEETFTVPELEIPTQIYRTTRQDGSYTYHSTNKDNKAELIKPIQNGEIIDISAFTQFLRLIFVSILSDRANKNQDAFEAELSNIPLLLITHHSWSQSDLEIITQYVFESLEINNLIQLPASLAATYSMISLQNCCIIDVGTHHTDIIPIVDYAQLDHLVSSIPMGGQSINDSLKKLLPQWDDDQIESLKKSPIFEVLSDDAKKLSSFDFGNENEDEDEGTLNVAEIITSGRDTREVLEERERGQKVKNVKNSDLEFNTFWDEKGNEIKVGKQRFQGCNNLIKNISNRVGLTLDNIDDINKAKAVWENIIIVGGTTSISGFKEALLGQLLKDHLIIEPEEEKSKREEEAKSVLPAATKKKSKFMTNSTAFVPTIEYVQCPTVIKLAKYPDYFPEWKKSGYSEIIFLGAQIVSKQIFTHPKDTFYITREKYNMKGPAALWDVQF
# B2: Rtt102, subunit of RSC (natural protein)
# chain: MDPQTLITKANKVSYYGNPTSKESWRYDWYQPSKVSSNVQQPQQQLGDMENNLEKYPFRYKTWLRNQEDEKNLQRESCEDILDLKEFDRRILKKSLMTSHTKGDTSKATGAPSANQGDEALSVDDIRGAVGNSEAIPGLSAGVNNDNTKESKDVKMN
# B3: Sth1, ATPase subunit of RSC (enzyme)
# chain: MLQEQSELMSTVMNNTPTTVAALAAVAAASETNGKLGSEEQPEITIPKPRSSAQLEQLLYRYRAIQNHPKENKLEIKAIEDTFRNISRDQDIYETKLDTLRKSIDKGFQYDEDLLNKHLVALQLLEKDTDVPDYFLDLPDTKNDNTTAIEVDYSEKKPIKISADFNAKAKSLGLESKFSNATKTALGDPDTEIRISARISNRINELERLPANLGTYSLDDCLEFITKDDLSSRMDTFKIKALVELKSLKLLTKQKSIRQKLINNVASQAHHNIPYLRDSPFTAAAQRSVQIRSKVIVPQTVRLAEELERQQLLEKRKKERNLHLQKINSIIDFIKERQSEQWSRQERCFQFGRLGASLHNQMEKDEQKRIERTAKQRLAALKSNDEEAYLKLLDQTKDTRITQLLRQTNSFLDSLSEAVRAQQNEAKILHGEEVQPITDEEREKTDYYEVAHRIKEKIDKQPSILVGGTLKEYQLRGLEWMVSLYNNHLNGILADEMGLGKTIQSISLITYLYEVKKDIGPFLVIVPLSTITNWTLEFEKWAPSLNTIIYKGTPNQRHSLQHQIRVGNFDVLLTTYEYIIKDKSLLSKHDWAHMIIDEGHRMKNAQSKLSFTISHYYRTRNRLILTGTPLQNNLPELWALLNFVLPKIFNSAKTFEDWFNTPFANTGTQEKLELTEEETLLIIRRLHKVLRPFLLRRLKKEVEKDLPDKVEKVIKCKLSGLQQQLYQQMLKHNALFVGAGTEGATKGGIKGLNNKIMQLRKICNHPFVFDEVEGVVNPSRGNSDLLFRVAGKFELLDRVLPKFKASGHRVLMFFQMTQVMDIMEDFLRMKDLKYMRLDGSTKTEERTEMLNAFNAPDSDYFCFLLSTRAGGLGLNLQTADTVIIFDTDWNPHQDLQAQDRAHRIGQKNEVRILRLITTDSVEEVILERAMQKLDIDGKVIQAGKFDNKSTAEEQEAFLRRLIESETNRDDDDKAELDDDELNDTLARSADEKILFDKIDKERMNQERADAKAQGLRVPPPRLIQLDELPKVFREDIEEHFKKEDSEPLGRIRQKKRVYYDDGLTEEQFLEAVEDDNMSLEDAIKKRREARERRRLRQNGTKENEIETLENTPEASETSLIENNSFTAAVDEETNADKETTASRSKRRSSRKKRTISIVTAEDKENTQEESTSQENGGAKVEEEVKSSSVEIINGSESKKKKPKLTVKIKLNKTTVLENNDGKRAEEKPESKSPAKKTAAKKTKTKSKSLGIFPTVEKLVEEMREQLDEVDSHPRTSIFEKLPSKRDYPDYFKVIEKPMAIDIILKNCKNGTYKTLEEVRQALQTMFENARFYNEEGSWVYVDADKLNEFTDEWFKEHSS
# B4: Rsc8, subunit of RSC (natural protein)
# chain: MSDTEKDKDVPMVDSHEATEEPPTTSTNTPSFPHLAQEQAKEESATLGAEVAHKKINYEQEAQKLEEKALRFLAKQTHPVIIPSFASWFDISKIHEIEKRSNPDFFNDSSRFKTPKAYKDTRNFIINTYRLSPYEYLTITAVRRNVAMDVASIVKIHAFLEKWGLINYQIDPRTKPSLIGPSFTGHFQVVLDTPQGLKPFLPENVIKQEVEGGDGAEPQVKKEFPVNLTIKKNVYDSAQDFNALQDESRNSRQIHKVYICHTCGNESINVRYHNLRARDTNLCSRCFQEGHFGANFQSSDFIRLENNGNSVKKNWSDQEMLLLLEGIEMYEDQWEKIADHVGGHKRVEDCIEKFLSLPIEDNYIREVVGSTLNGKGGDSRDGSVSGSKLMECVNDAVQTLLQGDDKLGKVSDKSREISEKYIEESQAIIQELVKLTMEKLESKFTKLCDLETQLEMEKLKYVKESEKMLNDRLSLSKQILDLNKSLEELNVSKKLVLISEQVDSGIQLVEKDQEGDDEDGNTATGHGVKRVGKEGEEVGEGDSIAKLQPQVYKPWSL
# B5: Sfh1, subunit of RSC (natural protein)
# chain: MSHQNQLIPQAYISNFHNRLTNEDDGIPIFTMAQQTRQHKRAKVVNYAEYDNDLFDEFNMNGSNFNNADTHYKDNAVSHENTPALTNGVTMDGSEYNVLENMNGADSIISNNKYDAGSNMVVESLSGLNSNNNASNGPSNKAQAQDIGNAVLPDLQDQHHNPFNILRYPKIRDTFINGKVVSPYRLNTDQETKANANSGEAIMIPITLDIEHMGHTIKDQFLWNYNDDSISPEEFASIYCKDLDMTSATLQTQIANIIKEQLKDLENIAATEIMSDLHVIINLTCNLQDRFFEDNFQWNLNDKSLTPERFATSIVQDLGLTREFIPLISQSLHETILKIKKDWVDGHLIQDHVPNDAAFGYLSGIRLDIDELGSNWCPRVEILTKEEIQKREIEKERNLRRLKRETDRLSRRGRRRLDDLETTMRM
# B6: Rsc6, subunit of RSC (natural protein)
# chain: MVTQTNPVPVTYPTDAYIPTYLPDDKVSNLADLKKLIEMDSRLDLYLTRRRLDTSINLPTNTKTKDHPPNKEMLRIYVYNTTESSPRSDSGTPADSGKTTWTLRIEGKLLHESANGKHPFSEFLEGVAVDFKRLKPLGMGKKRKRDSSLSLPLNLQQPEYNDQDSTMGDNDNGEDEDSAEAESREEIVDALEWNYDENNVVEFDGIDIKRQGKDNLRCSITIQLRGVDGGKVQYSPNLATLIGMQTGSVNDAVYSIYKYILINNLFVTEQTEAQDGSNDAEDSSNENNNKNGAGDDDGVEGSTPKDKPELGEVKLDSLLQKVLDTNAAHLPLMNVVQTVNKLVSPLPPIILDYTIDLSKDTTYGATTLDVDVSHILHQPQPQPNLQKEEETDAEDTAKLREITKLALQLNSSAQKYQFFHELSLHPRETLTHYLWSSKQNELVLQGDQYFNEDAARTSDIYSNNNNDRSLMGNISLLYSQGRL
# B7: Arp7, actin-related protein, subunit of RSC (natural protein)
# chain: MTLNRKCVVIHNGSHRTVAGFSNVELPQCIIPSSYIKRTDEGGEAEFIFGTYNMIDAAAEKRNGDEVYTLVDSQGLPYNWDALEMQWRYLYDTQLKVSPEELPLVITMPATNGKPDMAILERYYELAFDKLNVPVFQIVIEPLAIALSMGKSSAFVIDIGASGCNVTPIIDGIVVKNAVVRSKFGGDFLDFQVHERLAPLIKEENDMENMADEQKRSTDVWYEASTWIQQFKSTMLQVSEKDLFELERYYKEQADIYAKQQEQLKQMDQQLQYTALTGSPNNPLVQKKNFLFKPLNKTLTLDLKECYQFAEYLFKPQLISDKFSPEDGLGPLMAKSVKKAGASINSMKANTSTNPNGLGTSHINTNVGDNNSTASSSNISPEQVYSLLLTNVIITGSTSLIEGMEQRIIKELSIRFPQYKLTTFANQVMMDRKIQGWLGALTMANLPSWSLGKWYSKEDYETLKRDRKQSQATNATN
# Tests used:
# Experiment in all cases: cryo-EM structure
# [1] = target: B3
# [2] = target: histone H4 (Xenopus laevis) (Xenopus laevis, UniProt P62799 2-103)
# [3] = target: the molecule itself
# [4] = target: B4
binder,measurement,setting,value
B1,binding result,[1],binds
B2,binding result,[1],binds
B3,binding result,[2],binds
B4,stoichiometry N,[3],2
B5,binding result,[4],binds
B6,binding result,[4],binds
B7,binding result,[1],binds
